The values that follow come from article PMC7365037.

Common to all, as to experiment: ITC
A general note: ITC needs no label: the signal is the heat of the interaction.

Experiment [1] has as its target HP1α K46A/E52D/D62F engineered chromodomain (His-tagged) (D. melanogaster) (UniProt P05205).
Experiment [2] deals with HP1α chromodomain from D. melanogaster, wild-type (His-tagged) (D. melanogaster) (UniProt P05205).
Experiment [3] deals with human CBX1 chromodomain double mutant K46A/D62F (HP1α numbering) (His-tagged) (human).
Experiment [4] concerns the target human CBX1 chromodomain, wild-type (His-tagged) (human) (UniProt P83916).
Sequence of UniProt P83916 (P83916 15-73): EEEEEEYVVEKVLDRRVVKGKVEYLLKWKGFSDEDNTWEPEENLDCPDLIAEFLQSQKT
Experiment [5] addresses human CBX3 chromodomain double mutant K46A/D62F (HP1α numbering) (His-tagged) (human).
For experiment [6], the target named is human CBX3 chromodomain, wild-type (His-tagged) (human) (UniProt Q13185).
Sequence of UniProt Q13185 (Q13185 25-81): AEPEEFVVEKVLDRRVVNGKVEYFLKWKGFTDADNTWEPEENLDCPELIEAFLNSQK

One may read the Kd as the constant that tells how readily two partners part at equilibrium. Read a high Kd as lower affinity. Turning to H3K9me3 peptide (used in ITC), the Kd in experiment [1] worked out at 700 nM; in experiment [2] it was 14000 nM; in experiment [3], 130 nM; in experiment [4] it was 600 nM; in experiment [5], 400 nM; in experiment [6], 3000 nM.
